Measured values taken from article PMC8881611, “A mechanism of origin licensing control through autoinhibition of S. cerevisiae ORC·DNA·Cdc6” (Nature Communications, 2022).

Key:
[1] = biological target: T1, ScORC·DNA·Cdc6 with MBP-tagged ORC holding Orc6 ΔCBN/Δlinker (Orc6Δ1-269), ORC dephosphorylated with λ … (S. cerevisiae, UniProt P54784 1-914; P32833 1-620; P54790 1-616; P54791 1-529; P50874 1-479; P38826 …, ORC treated with λ phosphatase); experiment: pull-down; amylose pulldown, ORC with MBP-tagged Orc4 as bait; 0.5 uM ScORC, 0.5 uM 84 bp ARS1 dsDNA, 1 uM ScCdc6, 10 uM ScMcm7 (titrations 1.5, 5, 10 uM), 2 mM ATPγS; 25 mM HEPES pH 7.5, 300 mM potassium acetate, 10 mM magnesium acetate, 1 mM DTT; on ice; maltose elution, Coomassie-stained SDS-PAGE; details: both partners purified
T1 construct: Orc1, S. cerevisiae, wild type; Orc2, S. cerevisiae, wild type; Orc3, S. cerevisiae, wild type; Orc4, S. cerevisiae, wild type; Orc5, S. cerevisiae, wild type; Orc6, S. cerevisiae, truncation Orc6Δ1-269 (lacks the N-terminal cyclin box fold and the flexible linker); Cdc6, S. cerevisiae, wild type; ORC dephosphorylated before assembly with DNA, Cdc6 and ATPγS; also called Orc6 ΔCBN/Δlinker, λ …

[2] = biological target: T2, ScORC·DNA·Cdc6 with MBP-tagged ORC (full-length Orc6), ORC dephosphorylated with λ phosphatase (S. cerevisiae, UniProt P54784 1-914; P32833 1-620; P54790 1-616; P54791 1-529; P50874 1-479; P38826 …, ORC treated with λ phosphatase | ORC treated with λ phosphatase); experiment: as above; details: both partners purified
T2 construct: Orc1, S. cerevisiae, wild type; Orc2, S. cerevisiae, wild type; Orc3, S. cerevisiae, wild type; Orc4, S. cerevisiae, wild type; Orc5, S. cerevisiae, wild type; Orc6, S. cerevisiae, wild type; Cdc6, S. cerevisiae, wild type; ORC (10 uM) dephosphorylated with 16.7 units/uL λ phosphatase, 10 min, 30 °C, before assembly with DNA, Cdc6 and ATPγS; also called dephosphorylated MBP-ORC·DNA·Cdc6; source: …

- binding result [1]: binds
- binding result [2]: binds
B1: S. cerevisiae Mcm7 (ScMcm7) (natural protein, UniProt P38132 1-845, looked up)
chain: MSAALPSIQLPVDYNNLFNEITDFLVTFKQDTLSSDATRNENEDENLDAENIEQHLLEKGPKYMAMLQKVANRELNSVIIDLDDILQYQNEKFLQGTQADDLVSAIQQNANHFTELFCRAIDNNMPLPTKEIDYKDDVLDVILNQRRLRNERMLSDRTNEIRSENLMDTTMDPPSSMNDALREVVEDETELFPPNLTRRYFLYFKPLSQNCARRYRKKAISSKPLSVRQIKGDFLGQLITVRGIITRVSDVKPAVEVIAYTCDQCGYEVFQEVNSRTFTPLSECTSEECSQNQTKGQLFMSTRASKFSAFQECKIQELSQQVPVGHIPRSLNIHVNGTLVRSLSPGDIVDVTGIFLPAPYTGFKALKAGLLTETYLEAQFVRQHKKKFASFSLTSDVEERVMELITSGDVYNRLAKSIAPEIYGNLDVKKALLLLLVGGVDKRVGDGMKIRGDINVCLMGDPGVAKSQLLKAICKISPRGVYTTGKGSSGVGLTAAVMKDPVTDEMILEGGALVLADNGICCIDEFDKMDESDRTAIHEVMEQQTISISKAGINTTLNARTSILAAANPLYGRYNPRLSPLDNINLPAALLSRFDILFLMLDIPSRDDDEKLAEHVTYVHMHNKQPDLDFTPVEPSKMREYIAYAKTKRPVMSEAVNDYVVQAYIRLRQDSKREMDSKFSFGQATPRTLLGIIRLSQALAKLRLADMVDIDDVEEALRLVRVSKESLYQETNKSKEDESPTTKIFTIIKKMLQETGKNTLSYENIVKTVRLRGFTMLQLSNCIQEYSYLNVWHLINEGNTLKFVDDGTMDTDQEDSLVSTPKLAPQTTASANVSAQDSDIDLQDA
notes: Mcm7, S. cerevisiae; migrates as a doublet on SDS-PAGE; source: E. coli BL21 RIL, purified (HisTrap, amylose, TEV cleavage, HisTrap, gel filtration); not shown: His6, N-terminal, cleaved; MBP, N-terminal, cleaved
